Data published in PMC9482650, “Quantitative fragmentomics allow affinity mapping of interactomes” (Nature Communications, 2022).

T1: RAPGEF6, Q8TEU7
T1 sequence (Q8TEU7 525-625, limits assumed, looked up): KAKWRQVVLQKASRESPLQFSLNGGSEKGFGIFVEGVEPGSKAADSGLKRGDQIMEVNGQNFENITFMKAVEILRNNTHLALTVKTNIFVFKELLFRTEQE

T2: LNX2_2, Q8N448
T2 sequence (Q8N448 334-432, limits assumed, looked up): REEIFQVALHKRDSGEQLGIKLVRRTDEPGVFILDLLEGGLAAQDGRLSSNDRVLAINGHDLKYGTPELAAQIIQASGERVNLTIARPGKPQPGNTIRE

T3: DLG3_3, Q92796
T3 sequence (Q92796 374-475, limits assumed, looked up): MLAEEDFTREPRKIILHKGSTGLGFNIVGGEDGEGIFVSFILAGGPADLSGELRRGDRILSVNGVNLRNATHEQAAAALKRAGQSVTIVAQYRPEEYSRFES

T4: GRIP1_7, Q9Y3R0
T4 sequence (Q9Y3R0 999-1096, limits assumed, looked up): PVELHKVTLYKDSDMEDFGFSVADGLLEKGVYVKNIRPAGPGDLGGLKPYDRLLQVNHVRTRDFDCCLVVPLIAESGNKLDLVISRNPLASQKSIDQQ

T5: APBA1_1, Q02410
T5 sequence (Q02410 651-752, limits assumed, looked up): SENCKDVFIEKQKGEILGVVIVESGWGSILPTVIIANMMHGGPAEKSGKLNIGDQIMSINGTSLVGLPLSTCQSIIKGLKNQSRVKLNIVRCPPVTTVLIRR

T6: LIN7A, O14910
T6 sequence (O14910 103-200, limits assumed, looked up): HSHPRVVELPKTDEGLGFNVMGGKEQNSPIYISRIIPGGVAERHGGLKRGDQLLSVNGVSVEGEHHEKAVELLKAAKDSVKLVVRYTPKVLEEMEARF

T7: MPP6, Q9NZW5
T7 sequence (Q9NZW5 125-219, limits assumed, looked up): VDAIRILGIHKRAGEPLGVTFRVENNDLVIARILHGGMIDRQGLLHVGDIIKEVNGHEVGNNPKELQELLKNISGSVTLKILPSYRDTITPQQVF

T8: SNTB1, Q13884
T8 sequence (Q13884 107-205, limits assumed, looked up): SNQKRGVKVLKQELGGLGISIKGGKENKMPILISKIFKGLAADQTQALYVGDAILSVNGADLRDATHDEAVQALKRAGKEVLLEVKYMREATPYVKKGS

T9: TJP3_3, O95049
T9 sequence (O95049 375-456, limits assumed, looked up): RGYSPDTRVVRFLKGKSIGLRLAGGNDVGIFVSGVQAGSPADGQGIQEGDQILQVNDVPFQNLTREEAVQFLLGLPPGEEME

T10: HTRA4, P83105
T10 sequence (P83105 378-476, limits assumed, looked up): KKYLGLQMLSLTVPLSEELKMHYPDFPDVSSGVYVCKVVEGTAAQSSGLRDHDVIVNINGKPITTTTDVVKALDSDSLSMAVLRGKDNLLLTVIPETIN

T11: APBA1_2, Q02410
T11 sequence (Q02410 742-832, limits assumed, looked up): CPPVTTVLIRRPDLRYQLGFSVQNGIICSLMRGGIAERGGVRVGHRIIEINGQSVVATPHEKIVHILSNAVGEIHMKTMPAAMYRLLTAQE

T12: ARHGAP21, Q5T5U3
T12 sequence (Q5T5U3 45-169, limits assumed, looked up): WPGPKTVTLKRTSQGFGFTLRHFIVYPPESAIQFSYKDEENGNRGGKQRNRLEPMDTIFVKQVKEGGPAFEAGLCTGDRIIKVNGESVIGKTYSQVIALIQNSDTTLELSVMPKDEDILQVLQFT


Tests used:
Assay in all cases: holdup assay
Set-up in all cases: key: below the threshold = too weak to quantify, mostly under pKd 3.1 to 4
Conditions in all cases: plain residues with an end cap or a label only (N-terminal biotin on a linker: ado-ado)
GRASP, Q7Z6J2 = target: GRASP, Q7Z6J2
RAPGEF6, Q8TEU7 = target: T1, RAPGEF6, Q8TEU7
LNX2_2, Q8N448 = target: T2, LNX2_2, Q8N448
DLG3_3, Q92796 = target: T3, DLG3_3, Q92796
NHERF2_2, Q15599 = target: NHERF2_2, Q15599
PICK1, Q9NRD5 = target: PICK1, Q9NRD5
NOS1, P29475 = target: NOS1, P29475
GRIP1_7, Q9Y3R0 = target: T4, GRIP1_7, Q9Y3R0
APBA1_1, Q02410 = target: T5, APBA1_1, Q02410
TJP2_1, Q9UDY2 = target: TJP2_1, Q9UDY2
NHERF4_1, Q86UT5-2 = target: NHERF4_1, Q86UT5-2
LIN7A, O14910 = target: T6, LIN7A, O14910
MPP6, Q9NZW5 = target: T7, MPP6, Q9NZW5
TJP1_3, Q07157 = target: TJP1_3, Q07157
Inadl_9, Q8NI35 = target: Inadl_9, Q8NI35
DLG4_1, P78352 = target: DLG4_1, P78352
Inadl_2, Q8NI35 = target: Inadl_2, Q8NI35
SNTB1, Q13884 = target: T8, SNTB1, Q13884
MAGI1_1, Q96QZ7 = target: MAGI1_1, Q96QZ7
TJP3_3, O95049 = target: T9, TJP3_3, O95049
HTRA4, P83105 = target: T10, HTRA4, P83105
NHERF4_4, Q86UT5 = target: NHERF4_4, Q86UT5
APBA1_2, Q02410 = target: T11, APBA1_2, Q02410
ARHGAP21, Q5T5U3 = target: T12, ARHGAP21, Q5T5U3
GRID2IP_1, A4D2P6 = target: GRID2IP_1, A4D2P6
GRID2IP_1, A4D2P6, sequence (A4D2P6 1-87): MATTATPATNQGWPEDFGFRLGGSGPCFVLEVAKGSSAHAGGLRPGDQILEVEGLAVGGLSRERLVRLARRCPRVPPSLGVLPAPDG

DLG4_1, P78352, sequence (P78352 62-152): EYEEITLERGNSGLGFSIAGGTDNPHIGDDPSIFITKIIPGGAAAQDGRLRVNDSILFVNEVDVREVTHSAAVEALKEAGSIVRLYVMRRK
Inadl_9, Q8NI35, sequence (Q8NI35 1530-1615): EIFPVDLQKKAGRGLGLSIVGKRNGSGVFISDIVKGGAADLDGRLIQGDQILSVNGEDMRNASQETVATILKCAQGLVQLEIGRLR
GRASP, Q7Z6J2, sequence (Q7Z6J2 96-193): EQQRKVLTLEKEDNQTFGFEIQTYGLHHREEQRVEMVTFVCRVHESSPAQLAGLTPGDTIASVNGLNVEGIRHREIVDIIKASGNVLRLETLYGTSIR
NHERF4_4, Q86UT5, sequence (Q86UT5 464-550): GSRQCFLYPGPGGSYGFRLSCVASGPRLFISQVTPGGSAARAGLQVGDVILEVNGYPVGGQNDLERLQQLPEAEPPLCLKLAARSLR
NOS1, P29475, sequence (P29475 9-101): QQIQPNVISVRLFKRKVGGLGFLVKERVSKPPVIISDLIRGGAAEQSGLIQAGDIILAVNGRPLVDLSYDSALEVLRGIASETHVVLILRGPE
MAGI1_1, Q96QZ7, sequence (Q96QZ7 1-106): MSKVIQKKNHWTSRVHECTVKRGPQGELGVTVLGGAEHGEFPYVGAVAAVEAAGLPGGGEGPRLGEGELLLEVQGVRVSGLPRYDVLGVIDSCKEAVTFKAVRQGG
NHERF2_2, Q15599, sequence (Q15599 142-238): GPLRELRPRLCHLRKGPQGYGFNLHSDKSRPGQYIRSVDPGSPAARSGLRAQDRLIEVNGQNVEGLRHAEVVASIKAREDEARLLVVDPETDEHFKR
TJP2_1, Q9UDY2, sequence (Q9UDY2 24-128): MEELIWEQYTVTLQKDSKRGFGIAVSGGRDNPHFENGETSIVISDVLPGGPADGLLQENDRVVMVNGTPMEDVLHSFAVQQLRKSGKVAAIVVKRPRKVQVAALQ
TJP1_3, Q07157, sequence (Q07157 416-512): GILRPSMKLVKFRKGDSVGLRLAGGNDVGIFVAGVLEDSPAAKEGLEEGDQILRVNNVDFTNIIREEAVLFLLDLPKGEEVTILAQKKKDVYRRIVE
Inadl_2, Q8NI35, sequence (Q8NI35 238-335): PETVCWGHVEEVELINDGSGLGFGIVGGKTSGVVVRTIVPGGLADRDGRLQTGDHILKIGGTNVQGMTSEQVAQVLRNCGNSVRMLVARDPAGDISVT
PICK1, Q9NRD5, sequence (Q9NRD5 17-115): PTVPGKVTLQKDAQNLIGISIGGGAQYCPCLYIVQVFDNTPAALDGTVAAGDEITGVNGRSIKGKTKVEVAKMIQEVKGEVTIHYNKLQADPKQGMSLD
NHERF4_1, Q86UT5-2, sequence (Q86UT5 other isoform, or with tags, fused parts or gaps): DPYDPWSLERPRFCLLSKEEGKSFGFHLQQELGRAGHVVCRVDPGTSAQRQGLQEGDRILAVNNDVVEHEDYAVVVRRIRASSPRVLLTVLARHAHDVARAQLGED

Binder | pKd (GRASP, Q7Z6J2) | pKd (RAPGEF6, Q8TEU7) | pKd (LNX2_2, Q8N448) | pKd (DLG3_3, Q92796) | pKd (NHERF2_2, Q15599) | pKd (PICK1, Q9NRD5) | pKd (NOS1, P29475) | pKd (GRIP1_7, Q9Y3R0) | pKd (APBA1_1, Q02410) | pKd (TJP2_1, Q9UDY2) | pKd (Inadl_9, Q8NI35) | pKd (DLG4_1, P78352) | pKd (Inadl_2, Q8NI35) | pKd (SNTB1, Q13884) | pKd (MAGI1_1, Q96QZ7) | pKd (TJP3_3, O95049) | pKd (HTRA4, P83105) | pKd (NHERF4_4, Q86UT5) | pKd (APBA1_2, Q02410) | pKd (GRID2IP_1, A4D2P6) | other results
SKSLERATQL [COMMD3, Q9UBI1] | 4 | 3.85 | 3.56 | 3.74 | 4.58 | below the threshold | 4.02 | 3.51 | below the threshold | 3.72 | below the threshold | below the threshold | below the threshold | 4.24 | below the threshold | below the threshold | below the threshold | below the threshold | 4.16 | below the threshold | pKd (NHERF4_1, Q86UT5-2): 4.23; pKd (LIN7A, O14910): below the threshold; pKd (MPP6, Q9NZW5): below the threshold; pKd (TJP1_3, Q07157): 3.51; pKd (ARHGAP21, Q5T5U3): below the threshold
KSTTRSSSSC [NDE1, Q9NXR1;Q9NXR1-2] | below the threshold | below the threshold | below the threshold | below the threshold | below the threshold | below the threshold | below the threshold | below the threshold | below the threshold | below the threshold | below the threshold | below the threshold | below the threshold | below the threshold | below the threshold | below the threshold | below the threshold | below the threshold | below the threshold | below the threshold | pKd (LIN7A, O14910): below the threshold; pKd (TJP1_3, Q07157): below the threshold; pKd (ARHGAP21, Q5T5U3): below the threshold
EYRKDNKVAA [LSM14A, Q8ND56;Q8ND56-2] | below the threshold | below the threshold | below the threshold | below the threshold | below the threshold | below the threshold | below the threshold | below the threshold | below the threshold | – | below the threshold | below the threshold | below the threshold | below the threshold | below the threshold | below the threshold | below the threshold | below the threshold | below the threshold | below the threshold | pKd (LIN7A, O14910): below the threshold; pKd (MPP6, Q9NZW5): below the threshold
LRYARPADAL [PPP1R3G, B7ZBB8] | 3.47 | below the threshold | below the threshold | below the threshold | below the threshold | below the threshold | 4.36 | below the threshold | below the threshold | below the threshold | below the threshold | below the threshold | below the threshold | below the threshold | below the threshold | below the threshold | 3.92 | below the threshold | 3.82 | below the threshold | pKd (NHERF4_1, Q86UT5-2): 4.29; pKd (LIN7A, O14910): below the threshold; pKd (MPP6, Q9NZW5): below the threshold; pKd (TJP1_3, Q07157): below the threshold; pKd (ARHGAP21, Q5T5U3): 3.9
VGIERETDVL [EZH1, Q92800] | 4.36 | below the threshold | below the threshold | below the threshold | 3.6 | 4.09 | below the threshold | below the threshold | below the threshold | below the threshold | below the threshold | below the threshold | below the threshold | 4.52 | below the threshold | below the threshold | below the threshold | below the threshold | below the threshold | below the threshold | pKd (NHERF4_1, Q86UT5-2): 3.8; pKd (MPP6, Q9NZW5): below the threshold; pKd (TJP1_3, Q07157): below the threshold; pKd (ARHGAP21, Q5T5U3): 3.92
GDHLDRRVVL [VAC14, Q08AM6] | below the threshold | below the threshold | 3.48 | below the threshold | below the threshold | below the threshold | below the threshold | below the threshold | below the threshold | below the threshold | below the threshold | below the threshold | below the threshold | below the threshold | below the threshold | below the threshold | 3.92 | 3.78 | below the threshold | below the threshold | pKd (NHERF4_1, Q86UT5-2): 4.07; pKd (LIN7A, O14910): below the threshold; pKd (MPP6, Q9NZW5): 3.51; pKd (TJP1_3, Q07157): below the threshold; pKd (ARHGAP21, Q5T5U3): 3.54
